Measured values from publication PMC9873690, “Structural insights into the elevator-type transport mechanism of a bacterial ZIP metal transporter” (Nature Communications, 2023).

Target: the molecule itself
Assay: cross-linking; disulfide cross-linking of variants purified in DDM with 50 µM Cu(II)-(1,10-phenanthroline)3 at 25 °C; non-reducing SDS-PAGE and Western blot with anti-Histag antibody

B1: BbZIP L138C/M295C variant (natural protein)
chain: MNQPSSLAADLRGAWHAQAQSHPLITLGLAASAAGVVLLLVAGIVNALTGENRVHVGYAVLGGAAGFAATALGALMALGLRAISARTQDAMLGFAAGMMLAASAFSLILPGLDAAGTIVGPGPAAAAVVALGLGLGVCLMLGLDYFTPHEHERTGHQGPEAARVNRVWLFVLTIILHNLPEGMAIGVSFATGDLRIGLPLTSAIAIQDVPEGLAVALALRAVGLPIGRAVLVAVASGLMEPLGALVGVGISSGFALAYPISMGLAAGAMIFVVSHEVIPETHRNGHETTATVGLCAGFALMMFLDTALG
notes: Purified protein was detected with the anti-Histag antibody; in the membrane fraction it was detected with a custom monoclonal antibody against BbZIP; source: E. coli C41 (DE3) pLysS, purified in DDM (1 mM TCEP except in the last size-exclusion step); also in the spheroplast-derived membrane fraction of E. coli cells; not shown: His-tag, N-terminal, kept
stoichiometry N: 2
